Test results from patent publication US20220289852A1 (ACCELERON PHARMA, published 2022).

Tests used:
Experiment in all cases: SPR (Biacore), receptor-Fc captured by anti-Fc antibody, ligand injected
activin C = target: T1, activin C (UniProt P55103 237-352)
T1 sequence (looked up): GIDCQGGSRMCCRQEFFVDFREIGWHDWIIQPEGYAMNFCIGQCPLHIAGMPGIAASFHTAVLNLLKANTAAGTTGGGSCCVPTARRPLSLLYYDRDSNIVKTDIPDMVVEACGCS
Protocol: (§1) A Biacore™-based binding assay was used to compare ligand binding selectivity of the ActRIIB-Fc:ALK7-Fc heterodimeric complex described above with that of ActRIIB-Fc and ALK7-Fc homodimeric complexes. The ActRIIB-Fc:ALK7-Fc heterodimer, ActRIIB-Fc homodimer, and ALK7-Fc homodimer were independently captured onto the system using an anti-Fc antibody. Ligands were injected and allowed to flow over the captured receptor protein. Results are summarized in the table below, in which ligand off-rates (kd) most indicative of effective ligand traps are denoted by bold text.

activin A = target: T2, activin A (UniProt P08476 311-426)
T2 sequence (looked up): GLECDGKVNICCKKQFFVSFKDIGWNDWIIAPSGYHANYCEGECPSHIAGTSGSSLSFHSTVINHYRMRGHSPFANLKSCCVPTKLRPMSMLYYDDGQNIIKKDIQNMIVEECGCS
Protocol: as §1

activin AC = target: T3, activin AC (UniProt P08476 311-426; P55103 237-352)
T3 sequence (looked up) 1: T2 sequence (looked up)
T3 sequence (looked up) 2: T1 sequence (looked up)
Protocol: as §1

activin B = target: T4, activin B (UniProt P09529 293-407)
T4 sequence (looked up): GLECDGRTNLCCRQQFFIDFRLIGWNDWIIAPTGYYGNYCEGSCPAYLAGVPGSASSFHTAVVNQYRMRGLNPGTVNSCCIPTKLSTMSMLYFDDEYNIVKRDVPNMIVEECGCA
Protocol: as §1

BMP5 = target: T5, BMP5 (UniProt P22003 317-454, limits assumed)
T5 sequence (looked up): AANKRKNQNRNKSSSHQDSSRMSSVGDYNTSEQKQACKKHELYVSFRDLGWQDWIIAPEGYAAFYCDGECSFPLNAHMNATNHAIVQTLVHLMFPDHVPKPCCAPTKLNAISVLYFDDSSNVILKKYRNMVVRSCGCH
Protocol: as §1

BMP6 = target: T6, BMP6 (UniProt P22004 375-513, limits assumed)
T6 sequence (looked up): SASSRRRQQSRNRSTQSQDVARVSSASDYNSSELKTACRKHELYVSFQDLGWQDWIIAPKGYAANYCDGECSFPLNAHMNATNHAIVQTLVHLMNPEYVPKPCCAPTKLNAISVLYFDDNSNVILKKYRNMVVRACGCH
Protocol: as §1

B1: ActRIIB-Fc homodimer (Fc fusion)
chain: GRGEAETRECIYYNANWELERTNQSGLERCEGEQDKRLHCYASWRNSSGTIELVKKGCWLDDFNCYDRQECVATEENPQVYFCCCEGNFCNERFTHLPEAGGPEVTYEPPPTAPT
notes: also called ActRIIB-Fc homodimeric complex; ActRIIB homodimer; not shown: linker and Fc domain of the homodimer
- binding result (activin C): no binding
- Kd (activin A): 11 pM
- koff (activin A): 0.00014 s⁻¹
- kon (activin A): 1.3e+07 M⁻¹ s⁻¹
- Kd (activin AC): 160 pM
- koff (activin AC): 0.0031 s⁻¹
- kon (activin AC): 2e+07 M⁻¹ s⁻¹
- Kd (activin B): 8 pM
- koff (activin B): 0.00016 s⁻¹
- kon (activin B): 1.5e+07 M⁻¹ s⁻¹
- Kd (BMP5): 2900 pM
- koff (BMP5): 0.075 s⁻¹
- kon (BMP5): 2.6e+07 M⁻¹ s⁻¹
- Kd (BMP6): 160 pM
- koff (BMP6): 0.0039 s⁻¹
- kon (BMP6): 2.4e+07 M⁻¹ s⁻¹
